The source of these data is patent US20150246947A1 (BAXALTA, published 2015).

Where two headings read alike, the source gives them in different places.

For experiment [1], the target named is T1, human Protein S (human, UniProt P07225 42-676).
T1 sequence: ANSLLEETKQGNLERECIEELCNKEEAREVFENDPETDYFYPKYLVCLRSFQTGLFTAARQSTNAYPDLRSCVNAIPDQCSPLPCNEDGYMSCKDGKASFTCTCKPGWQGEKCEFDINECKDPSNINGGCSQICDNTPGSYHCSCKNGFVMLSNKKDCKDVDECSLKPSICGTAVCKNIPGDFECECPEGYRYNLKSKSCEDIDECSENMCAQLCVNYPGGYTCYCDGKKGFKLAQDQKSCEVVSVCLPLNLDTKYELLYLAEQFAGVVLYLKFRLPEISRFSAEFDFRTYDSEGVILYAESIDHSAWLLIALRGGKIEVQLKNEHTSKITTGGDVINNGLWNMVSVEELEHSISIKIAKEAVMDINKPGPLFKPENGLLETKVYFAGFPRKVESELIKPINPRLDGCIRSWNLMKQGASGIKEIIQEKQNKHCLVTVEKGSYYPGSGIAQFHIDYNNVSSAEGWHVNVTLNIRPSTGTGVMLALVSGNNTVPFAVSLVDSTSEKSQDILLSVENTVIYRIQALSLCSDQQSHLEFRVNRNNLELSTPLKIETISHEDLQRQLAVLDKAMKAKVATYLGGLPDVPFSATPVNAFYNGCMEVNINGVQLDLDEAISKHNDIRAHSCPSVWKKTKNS
In words: cell-based or functional assay.

The target of experiment [2] is T1, human Protein S. In words: competition ELISA; Protein S coated; competitor biotinylated tracer JBS0684. The method, then: The competition (IC50) ELISA was performed using biotinylated tracer peptide JBS0684 to compete for Protein S-binding with candidate peptides. Peptides that compete with the tracer bind the same region of Protein S as the tracer (and each other). Ninety-six well PolySorp plates (Nunc) were coated with 3 μg/mL Protein S in coating buffer (15 mM Na₂CO₃, 35 mM NaHCO₃, pH 9.6) over night. […] Plates were then washed three times with HNaT. JBS0684 was applied at a concentration corresponding to the EC90 value determined in the binding ELISA. A competitor stock solution of peptide (10 mM) was diluted 1/33.3 in HNaT without HSA, and a serial 1/3 dilution was prepared with HNaT with 3% DMSO. The dilution was further diluted with the biotinylated tracer peptide in a ratio of 1:6 (20 μl competitor dilution and 100 μl tracer peptide). The mixture of competitor and tracer peptide was applied to the Protein S-coated microtiter plate and incubated for 1.5 hours. The plates were washed three times with HNaT. Peptide-Protein S binding was detected by applying HRP-conjugated streptavidin to the microtiter plate, incubating the mixture for one hour, washing the plate three times with HNaT, applying TMB (3,3′5,5′-Tetramethylbenzidin), and detecting the subsequent chromogenic conversion of TMB by HRP. IC50 measurements of peptides are provided herein (see, e.g., Table 3).
On the technique in general: An ELISA detects its analyte on a solid surface through an enzyme-linked reagent.

Experiment [3] addresses T2, human Protein S (UniProt P07225 42-676).
T2 chain: T1 sequence
In words: LANCE competition. The procedure, abridged: (§1)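 In this LANCE homogeneous time-resolved FRET competition assay, europium-labelled Protein S, ULight-labelled streptavidin and a biotinylated tracer peptide were combined with unlabelled test peptide titrated in three-fold steps. The 50 µl reactions held final concentrations of 10 nM Protein S, 100 nM streptavidin and 300 nM tracer, or 2 nM Protein S and 60 nM tracer on a Tecan F500. After 1 hour at room temperature, signals were read at Ex 340 nm and Em 665 nm. IC50 was determined by non-linear regression of the emission signals.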
(In TR-FRET formats the signal depends on donor and acceptor labels being close together.)

Experiment [4] deals with T1, human Protein S. In words: Biacore (SPR), Protein S immobilized. A digest of the protocol:
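Human full-length Protein S was immobilized at 1000 RU on a […] chip in a Biacore 3000 or Biacore T200 instrument. Peptides at various concentrations in HBS-buffer containing 3 mM CaCl₂ and 1% DMSO were injected over the surface, and the chip was regenerated with 4 M MgCl₂ in HBS-buffer. Binding kinetics were determined by surface plasmon resonance: kon and koff were obtained by fitting sensorgrams to a Langmuir binding model, and Kd was calculated from these rate constants.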
A general note: SPR reads the build-up and loss of mass on a sensor chip optically.

For experiment [5], the target named is T2, human Protein S. In words: LANCE competition. The procedure, abridged:
as §1

Experiment [6] addresses T1, human Protein S. Briefly: cell-based or functional assay. This is another data set of the same source.
For experiment [7], the target named is T1, human Protein S. In words: LANCE TR-FRET competition; Eu-labeled Protein S; competitor tracer JBS0684. The method, then:
Peptides also were characterized in a competition, homogenous europium-based TR-FRET assay (LANCE IC50 assay) using JBS0684 as a tracer (i.e., competitor for Protein S binding). The following reagents were mixed together in a Perkin-Elmer ProxiPlate MTP well (indicated concentration is the final concentration): Eu-labeled Protein S (10 nM), Ulight™-labeled Streptavidin (100 nM), tracer (JBS0684 (300 nM)), and peptide (titrated in three-fold dilution steps). The final volume was 50 μl/well. The reaction mix was incubated for 1 hour at room temperature, then the fluorescence emission at 665 nm was recorded on a multi-mode reader (SpectraMax® M5, Molecular Devices) using the following instrument settings: Ex 340 nm, Em 665 nm, delay 50 μsec, integration 100 μsec, reads 100. Binding of tracer peptides to soluble europium-labeled Protein S was detected by Streptavidin labeled with an acceptor fluorophor (ULight™). Inhibition of tracer-binding to Protein S by a non-biotinylated peptide results in a decrease of TR-FRET between the Eu-labeled Protein S and ULight™-labeled Streptavidin. IC50 values were obtained from peptide titration curves at constant tracer concentration using non-linear regression of the fluorescence emission signals at 665 nm.
Several peptides having multiple substitutions in the JBS2572 amino acid sequence were synthesized and evaluated using LANCE IC50 and CAT assays described above. For the assays, pooled normal plasma was supplemented with 3 nM APC and triggered with 6 pM TF, and 15 μM phospholipids (DOPC/POPS 80/20). Stock APC was diluted with TF-PL-MIX to 24 nM (plasma concentration: 3 nM).

With Ac-TGHVSAGWYDYNFDHYREFT-NH2 [JBS2512], the “CAT EC50” value in the experiment with human Protein S [1] came out at 24 nM. Further, the concentration for half-maximal inhibition (IC50) with human Protein S [2] was 3.9 nM; with human Protein S [3], 21.5 nM.

Turning to Ac-TGHVSAGWYDYNKDHYREFT-NH2 [JBS2602], in the experiment with human Protein S [1], the “CAT EC50” value was determined as 30 nM. Also, the half-maximal inhibitory concentration (IC50) with human Protein S [2] was determined as 3.4 nM; with human Protein S [3], 10.9 nM.

In the case of Ac-TGHVSAGWYDYNFDHYLEFT-NH2 [JBS2586], in the experiment with human Protein S [1], the “CAT EC50” value was determined as 19 nM. Moreover, the figures for the 50% inhibitory concentration (IC50) with human Protein S [2] and in the experiment with human Protein S [3] were 2.6 nM and 11 nM, respectively.

Ac-TGHVSAGWYDYNFDSYREFT-NH2 [JBS2661]: the “CAT EC50” value with human Protein S [1] was 16 nM. For the same molecule, the results for the IC50 with human Protein S [2] and in the experiment with human Protein S [3] were 2.8 nM and 7.8 nM, respectively.

As for Ac-TAHVSAGWYDYNFDHYREFT-NH2 [JBS2516], the “CAT EC50” value in the experiment with human Protein S [1] is 21 nM. Moreover, the IC50 came out at 3.3 nM with human Protein S [2] and 9.9 nM with human Protein S [3].

On to Ac-TGHVSAGWYDYNFDAYREFT-NH2 [JBS2528], for which, in the experiment with human Protein S [1], the “CAT EC50” value amounted to 23 nM. Further, the values for the IC50 with human Protein S [2] and in the experiment with human Protein S [3] were 5.2 nM and 18.8 nM, respectively.

With Ac-TGKVSAGWYDYNFDHYREFT-NH2 [JBS2592], in the experiment with human Protein S [1], the “CAT EC50” value was 68 nM. Further, the IC50 with human Protein S [2] came out at 5.6 nM; with human Protein S [3], 20 nM.

In the case of Ac-TGHVSAGWYDYNFDDYREFT-NH2 [JBS2546], the “CAT EC50” value with human Protein S [1] came out at 30 nM. Besides, the concentration for half-maximal inhibition (IC50) with human Protein S [2] was 6.8 nM; with human Protein S [3], 31 nM.

In the case of Ac-GGHVSAGWYDYNFDHYREFT-NH2 [JBS2552], in the experiment with human Protein S [1], the “CAT EC50” value is 24 nM. Further, the IC50 with human Protein S [2] was 5.5 nM; with human Protein S [3], 16.6 nM.

Take Ac-HWYVSAGWYDYNEDKYYEFE-NH2 [JBS3306]: in the experiment with human Protein S [4], the Kd amounted to 0.4 nM, the koff came out at 0.000402 s⁻¹ and the kon is 1e+06 M⁻¹ s⁻¹. For the same molecule, in the experiment with human Protein S [5], the IC50 turned out to be 0.8 nM.

For the molecule Ac-TGHVSAGWYDYNADHYREFT-NH2 [JBS2526], the “CAT EC50” value with human Protein S [1] worked out at 19 nM. Moreover, in the experiment with human Protein S [2], the IC50 turned out to be 3.6 nM.

Ac-TKHVSAGWYDYNFDHYREFT-NH2 [JBS2591] registered a 50% inhibitory concentration (IC50) with human Protein S [2] of 4.2 nM.

As to Ac-TGLVSAGWYDYNFDTYMEFT-NH2 [JBS3186], the “CAT EC50” value in the experiment with human Protein S [6] worked out at 176 nM. In the experiment with human Protein S [7], this molecule came in with a 50% inhibitory concentration (IC50) of 2.6 nM.

Turning to Ac-YGLVSAGWYDYNFDVYREFT-NH2 [JBS3191], the “CAT EC50” value in the experiment with human Protein S [6] was found to be 147 nM. Besides, in the experiment with human Protein S [7], the concentration for half-maximal inhibition (IC50) came to 1.6 nM.

Turning to Ac-YGLVSAGWYDYNFDTYREFT-NH2 [JBS3190], in the experiment with human Protein S [6], the “CAT EC50” value was 130 nM. For the same molecule, in the experiment with human Protein S [7], the IC50 stood at 1.6 nM.

In the case of Ac-TGHVSAGWYDYNFDKYREFT-NH2 [JBS2604], the “CAT EC50” value in the experiment with human Protein S [1] came out at 19 nM. Further, in the experiment with human Protein S [2], the concentration for half-maximal inhibition (IC50) was found to be 4.1 nM.

For the molecule Ac-TGLVEAGWYDYNFDHYMEFT-NH2 [JBS3197], the “CAT EC50” value with human Protein S [6] stood at 146 nM. Besides, the IC50 with human Protein S [7] turned out to be 6.1 nM.

On to Ac-TGLVEAGWYDYNFDTYREFT-NH2 [JBS3192], for which the “CAT EC50” value with human Protein S [6] stood at 117 nM. For the same molecule, the IC50 in the experiment with human Protein S [7] turned out to be 2.8 nM.

Take Ac-TPHVSAGWYDYNFDHYREFT-NH2 [JBS2629]: in the experiment with human Protein S [1], the “CAT EC50” value is 25 nM. Also, the 50% inhibitory concentration (IC50) in the experiment with human Protein S [2] came to 3.1 nM.

With Ac-TGHVSAGWYDYNFDLYREFT-NH2 [JBS2584], the “CAT EC50” value with human Protein S [1] worked out at 9 nM. This molecule returned an IC50 in the experiment with human Protein S [2] of 2.7 nM.

Consider Ac-TGLVSAGWYDYNFDVYTEFT-NH2 [JBS3189], for which the “CAT EC50” value with human Protein S [6] came to 281 nM. The molecule also displayed an IC50 in the experiment with human Protein S [7] of 5 nM.

Turning to Ac-TGLVSAGWYDYNNDHYMEFT-NH2 [JBS3198], the “CAT EC50” value in the experiment with human Protein S [6] came to 149 nM. The concentration for half-maximal inhibition (IC50) with human Protein S [7] worked out at 2.5 nM.

Take Ac-TGLVSAGWYDYNFDTYTEFT-NH2 [JBS3188]: in the experiment with human Protein S [6], the “CAT EC50” value stood at 155 nM. The half-maximal inhibitory concentration (IC50) in the experiment with human Protein S [7] amounted to 2.9 nM.

Take Ac-TGHVSAGWYDYNFDHYFEFT-NH2 [JBS2625]: the “CAT EC50” value in the experiment with human Protein S [1] worked out at 29 nM. Further, the IC50 with human Protein S [2] is 1.6 nM; with human Protein S [3], 6.6 nM.

Regarding Ac-TGHVSAGWYDYNLDHYREFT-NH2 [JBS2582], the “CAT EC50” value with human Protein S [1] was found to be 15 nM. For the same molecule, the figures for the IC50 with human Protein S [2] and with human Protein S [3] were 2.3 nM and 7.4 nM, respectively.

The term IC50 denotes the concentration that inhibits the measured activity by half. Lower therefore signals greater potency in that assay. The Kd is the constant that tells how readily two partners part at equilibrium. By koff is commonly meant a measure of how fast the partners let go of each other. Read a high koff as a short-lived complex. Usually kon stands for the rate constant with which the complex forms. A lower kon goes with slower complex formation.
